In IntAct's records for PubMed 16525507:

B1: Type II secretion system protein E (Xanthomonas campestris pv. campestris), P31742 (parent)
chain: MEQRSAETRIVEALLERRRLKDTDLVRARQLQAESGMGLLALLGRLGLVSERDHAETCAEVLGLPLVDARQLGDTPPEMLPEVQGLSLRFLKQFHLCPVGERDGRLDLWIADPYDDYAIDAVRLATGLPLLLQVGLRSEIDDLIERWYGQGRSAMGTIVETADGDASSTDDIEALRDLASEAPVIRLVNLVIQHAVELRASDIHIEPFESRLKVRYRVDGVLVEGESPPAKLTAAVISRIKIMAKLNIAERRLPQDGRIMLRVQGKELDLRVSTVPTAHGESVVMRLLDRETVVFDFYKLGFTEDFLPQFRKVLEQPHGIMLVTGPTGSGKTTTLYTALSQLNTSDVKIITVEDPVEYQIEGINQIQAKPQIGLDFANALRSIVRQDPDIIMIGEMRDLETARIAIQSALTGHLVLSTLHTNNAAGGITRLLDMGVEDYLLTSTINGILAQRLVRKLDLANAERYAASPEEIERFDLRRLQPDGEIFLYRPRATAAAPTGYLGRTTIVEFLVMNDELRRAVMRRAGMGEIEQLARKSGMRTMYEDGLSKALRGETTIEEVLRVTEDA
partner: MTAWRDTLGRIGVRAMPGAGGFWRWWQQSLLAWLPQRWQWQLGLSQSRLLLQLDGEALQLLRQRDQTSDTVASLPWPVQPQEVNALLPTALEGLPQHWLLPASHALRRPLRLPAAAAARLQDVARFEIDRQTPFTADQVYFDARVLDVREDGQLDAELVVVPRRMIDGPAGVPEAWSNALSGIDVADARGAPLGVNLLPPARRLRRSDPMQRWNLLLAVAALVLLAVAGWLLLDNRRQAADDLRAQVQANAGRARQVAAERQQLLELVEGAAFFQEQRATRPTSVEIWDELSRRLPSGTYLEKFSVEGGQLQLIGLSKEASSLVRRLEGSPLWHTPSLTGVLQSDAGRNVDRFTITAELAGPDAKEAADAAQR

Variants of: B1
Conditions: with gspl_xancp pefL

Variant	effect of a mutation on the interaction
MEQRSAETRIVEALLERRRLKDTDLVRARQLQAESGMGLLALLGRLGLVSERDHAETCAEVLGLPLVDARQLGDTPPEMLPEVQGLSLRFLKQFHLCPVGERDGRLDLWIADPYDDYAIDAVRLATGLPLLLQVGLRSEIDDLIERWYGQGRSAMGTIVETADGDASSTDDIEALRDLASEAPVIRLVNLVIQHAVELRASDIHIEPFESRLKVRYRVDGVLVEGESPPAKLTAAVISRIKIMAKLNIAERRLPQDGRIMLRVQGKELDLRVSTVPTAHGESVVMRLLDRETVVFDFYKLGFTEDFLPQFRKVLEQPHGIMLVTGPTGSGMTTTLYTALSQLNTSDVKIITVEDPVEYQIEGINQIQAKPQIGLDFANALRSIVRQDPDIIMIGEMRDLETARIAIQSALTGHLVLSTLHTNNAAGGITRLLDMGVEDYLLTSTINGILAQRLVRKLDLANAERYAASPEEIERFDLRRLQPDGEIFLYRPRATAAAPTGYLGRTTIVEFLVMNDELRRAVMRRAGMGEIEQLARKSGMRTMYEDGLSKALRGETTIEEVLRVTEDA [K331M]	disrupting interaction
MEQRSAETRIVEALLERRRLKDTDLVRARQLQAESGMGLLALLGRLGLVSERDHAETCAEVLGLPLVDARQLGDTPPEMLPEVQGLSLRFLKQFHLCPVGERDGRLDLWIADPYDDYAIDAVRLATGLPLLLQVGLRSEIDDLIERWYGQGRSAMGTIVETADGDASSTDDIEALRDLASEAPVIRLVNLVIQHAVELRASDIHIEPFESRLKVRYRVDGVLVEGESPPAKLTAAVISRIKIMAKLNIAERRLPQDGRIMLRVQGKELDLRVSTVPTAHGESVVMRLLDRETVVFDFYKLGFTEDFLPQFRKVLEQPHGIMLVTGPTGSGKTTTLYTALSQLNTSDVKIITVEDPVEYQIEGINQIQAKPQIGLDFANALRSIVRQDPDIIMIGEMRDLETARIAIQSALTGHLVLSTLHTNNAAGGITRLLDMGVEDYLLTSTINGILAQRLVRKLDLANAERYAASPEEIERFDLRRLQPDGEIFLYRPRATAAAPTGYLGATTIVEFLVMNDELRRAVMRRAGMGEIEQLARKSGMRTMYEDGLSKALRGETTIEEVLRVTEDA [R504A]	disrupting interaction
